The target of assay [1] is bovine thrombin (bovine) (UniProt P00735). The conditions noted are these: scale: relative activity.
For assay [2], the target named is human fibrinogen (human) (UniProt P02671).
Assay [3] addresses bovine thrombin (bovine) (UniProt P00735).
Assay [4] has as its target DIP-thrombin agarose. The assay is described as follows: chromatography on DIP-thrombin agarose.

Data on 5 substances can be found in patent publication US5695964.

recombinant human urine thrombomodulin ruTM-Ala (receptor), sequence (chain): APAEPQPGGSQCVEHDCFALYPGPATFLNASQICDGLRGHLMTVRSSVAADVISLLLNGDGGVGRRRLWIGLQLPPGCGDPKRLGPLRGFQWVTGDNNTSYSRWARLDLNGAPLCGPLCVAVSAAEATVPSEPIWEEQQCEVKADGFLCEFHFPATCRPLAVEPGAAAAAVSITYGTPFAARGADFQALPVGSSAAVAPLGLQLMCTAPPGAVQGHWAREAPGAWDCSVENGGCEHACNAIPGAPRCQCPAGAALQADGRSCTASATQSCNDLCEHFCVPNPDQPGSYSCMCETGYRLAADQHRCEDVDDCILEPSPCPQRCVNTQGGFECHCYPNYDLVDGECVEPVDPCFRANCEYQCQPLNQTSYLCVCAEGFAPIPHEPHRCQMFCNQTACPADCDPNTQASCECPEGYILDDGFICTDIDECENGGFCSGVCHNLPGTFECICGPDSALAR
pKCR-TM-Val-originated recombinant human urine thrombomodulin (receptor), sequence (chain): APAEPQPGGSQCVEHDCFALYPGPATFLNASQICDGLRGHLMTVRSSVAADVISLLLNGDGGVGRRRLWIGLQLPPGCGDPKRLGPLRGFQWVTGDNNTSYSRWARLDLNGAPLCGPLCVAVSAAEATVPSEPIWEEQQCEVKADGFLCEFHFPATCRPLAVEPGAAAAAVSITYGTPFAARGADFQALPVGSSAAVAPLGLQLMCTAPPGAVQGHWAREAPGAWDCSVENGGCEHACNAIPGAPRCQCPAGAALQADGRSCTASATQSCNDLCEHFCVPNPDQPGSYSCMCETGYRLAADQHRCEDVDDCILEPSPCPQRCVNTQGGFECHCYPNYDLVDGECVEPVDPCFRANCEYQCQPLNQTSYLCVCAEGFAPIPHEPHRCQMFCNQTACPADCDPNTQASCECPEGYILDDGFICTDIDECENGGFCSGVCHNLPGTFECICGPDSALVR
mutation type recombinant human urine thrombomodulin in which 10 amino acid residues are deleted from the C-terminus of the human urine thrombomodulin (receptor), sequence (chain): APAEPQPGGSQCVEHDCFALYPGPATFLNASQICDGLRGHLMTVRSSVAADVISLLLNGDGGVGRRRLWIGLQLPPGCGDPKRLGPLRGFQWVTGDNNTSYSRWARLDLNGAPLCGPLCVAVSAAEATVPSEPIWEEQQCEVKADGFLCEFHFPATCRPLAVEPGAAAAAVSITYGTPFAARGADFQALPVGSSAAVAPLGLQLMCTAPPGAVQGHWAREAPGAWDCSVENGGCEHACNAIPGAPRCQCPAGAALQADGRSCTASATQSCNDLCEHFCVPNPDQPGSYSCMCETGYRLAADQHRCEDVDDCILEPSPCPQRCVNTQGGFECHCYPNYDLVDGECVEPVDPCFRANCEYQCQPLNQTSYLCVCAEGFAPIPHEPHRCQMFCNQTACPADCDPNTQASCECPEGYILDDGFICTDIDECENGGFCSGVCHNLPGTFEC

Substance “human placenta thrombomodulin (from UniProt P07204) (receptor)” came in with a Protein C activating ability (relative activity) in assay [1] of 1.

Turning to “bovine thrombin (from UniProt P00735) (enzyme)”, the Coagulation time in assay [2] was determined as 37.8 s.

As for “mutation type recombinant human urine thrombomodulin in which 10 amino acid residues are deleted from the C-terminus of the human urine thrombomodulin (receptor)”, the Protein C activating ability (relative activity) in assay [1] was 4.1.

With “pKCR-TM-Val-originated recombinant human urine thrombomodulin (receptor)”, the Coagulation time in assay [3] was more than 500 s. The adsorbed by thrombin in assay [4] was found to be 100%.

As for “recombinant human urine thrombomodulin ruTM-Ala (receptor)”, the Coagulation time in assay [3] was more than 500 s. This substance came in with a Protein C activating ability (relative activity) in assay [1] of 3.8. This substance also showed an adsorbed by thrombin in assay [4] of 100%.
